Source: paper PMC2699502

Target: EcoR124I S subunit (HsdS) (UniProt P10485)
Sequence of UniProt P10485 (P10485 whole entry): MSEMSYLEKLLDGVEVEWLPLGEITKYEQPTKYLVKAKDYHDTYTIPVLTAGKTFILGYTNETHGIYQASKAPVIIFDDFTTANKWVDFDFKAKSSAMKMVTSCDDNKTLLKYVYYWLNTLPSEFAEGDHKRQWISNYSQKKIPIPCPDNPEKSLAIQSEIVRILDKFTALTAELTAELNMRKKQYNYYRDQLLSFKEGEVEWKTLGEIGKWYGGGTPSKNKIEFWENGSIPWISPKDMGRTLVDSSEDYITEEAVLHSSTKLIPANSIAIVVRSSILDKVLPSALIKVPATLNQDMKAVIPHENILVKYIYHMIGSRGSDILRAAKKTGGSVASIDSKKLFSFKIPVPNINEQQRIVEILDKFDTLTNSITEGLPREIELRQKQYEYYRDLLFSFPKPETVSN

Row | Binder | stoichiometry N
1 | EcoR124I M subunit (HsdM) (enzyme) MKMTSIQQRAELHRQIWQIANDVRGSVDGWDFKQYVLGALFYRFISENFSSYIEAGDDSICYAKLDDSVITDDIKDDAIKTKGYFIYPSQLFCNVAAKANTNDRLNADLNSIFVAIESSAYGYPSEADIKGLFADFDTTSNRLGNTVKDKNARLAAVLKGVEGLKLGDFNEHQIDLFGDAYEFLISNYAANAGKSGGEFFTPQHVSKLIAQLAMHGQTHVNKIYDPAAGSGSLLLQAKKQFDNHIIEEGFFGQEINHTTYNLARMNMFLHNINYDKFDIKLGNTLTEPHFRDEKPFDAIVSNPPYSVKWIGSDDPTLINDERFAPAGVLAPKSKADFAFVLHALNYLSAKGRAAIVCFPGIFYRGGAEQKIRQYLVDNNYVETVISLAPNLFFGTTIAVNILVLSKHKTDTNVQFIDASELFKKETNNNILTDAHIEQIMQVFASKEDVAHLAKSVAFETVVANDYNLSVSSYVEAKDNREIIDIAELNAELKTTVSKIDQLRKDIDAIVAEIEGCEVQK | 2 M per S
2 | EcoR124I R subunit (HsdR) (enzyme) MTHQTHTIAESNNFIVLDKYIKAEPTGDSYQSESDLERELIQDLRNQGYEFISVKSQSAMLANVREQLQNLNGVVFNDSEWRRFTEQYLDNPSDGILDKTRKIHIDYICDFIFDDERLENIYLIDKKNLMRNKVQIIQQFEQAGSHANRYDVTILVNGLPLVQIELKKRGVAIREAFNQIHRYSKESFNSENSLFKYLQLFVISNGTDTRYFANTTKRDKNSFDFTMNWAKSDNTLIKDLKDFTATCFQKHTLLNVLVNYSVFDSSQTLLVMRPYQIAATERILWKIKSSFTAKNWSKPESGGYIWHTTGSGKTLTSFKAARLATELDFIDKVFFVVDRKDLDYQTMKEYQRFSPDSVNGSENTAGLKRNLDKDDNKIIVTTIQKLNNLMKAESDLPVYNQQVVFIFDECHRSQFGEAQKNLKKKFKRYYQFGFTGTPIFPENALGSETTASVFGRELHSYVITDAIRDEKVLKFKVDYNDVRPQFKSLETETDEKKLSAAENQQAFLHPMRIQEITQYILNNFRQKTHRTFPGSKGFNAMLAVSSVDAAKAYYATFKRLQEEAANKSATYKPLRIATIFSFAANEEQNAIGEISDETFDTSAMDSSAKEFLDAAIREYNSHFKTNFSTDSNGFQNYYRDLAQRVKNQDIDLLIVVGMFLTGFDAPTLNTLFVDKNLRYHGLMQAFSRTNRIYDATKTFGNIVTFRDLERSTIDAITLFGDKNTKNVVLEKSYTEYMEGFTDAATGEAKRGFMTVVSELEQRFPDPTSIESEKEKKDFVKLFGEYLRAENILQNYDEFATLKALQQIDLSDPVAVEKFKAEHYVDDEKFAELQTIRLPADRKIQDYRSAYNDIRDWQRREKEAEKKEKSTTDWDDVVFEVDLLKSQEINLDYILGLIFEHNRQNKGKGEMIEEVKRLIRSSLGNRAKEGLVVDFIQQTNLDDLPDKASIIDAFFTFAQREQQREAEALIKEENLNEDAAKRYIRTSLKREYATENGTELNETLPKLSPLNPQYKTKKQAVFQKIVSFIEKFKGVGGKI | 1 R per S
